The text below walks through data of patent publication US20120058906A1 (published 2012).

Assay [1] has as its target T1, rHuman HGF R/c-MET/Fc Chimera, CF (R&D Systems Cat#358-MT/CF) (human, UniProt P08581 25-932).
T1 construct: Bought Fc chimera; also called HGF R/Fc; hepatocyte growth factor receptor; Fc part of the bought chimera not given
The assay can be described thus: ECL (MSD Multi-Spot) binding, antigen spotted on plate; Fab 10 nM.

Assay [2] addresses T2, rHuman CD44/Fc Chimera, CF (R&D Systems Cat#3660-CD) (human, UniProt P16070 21-220).
T2 construct: Bought Fc chimera; Fc part of the bought chimera not given
The assay is described as above.

Assay [3] has as its target T3, rHuman EGF R/Fc Chimera, CF (R&D Systems Cat#344-ER) (human, UniProt P00533 25-645).
T3 construct: Bought Fc chimera; also called epidermal growth factor receptor; Fc part of the bought chimera not given
The description is as above.

In assay [4] the target is T4, rHuman Erythropoietin R/Fc Chimera, CF (R&D Systems Cat#963-ER) (human, UniProt P19235 25-250).
T4 construct: Bought Fc chimera; also called EPO R/Fc; erythropoietin receptor; Fc part of the bought chimera not given
T4 sequence: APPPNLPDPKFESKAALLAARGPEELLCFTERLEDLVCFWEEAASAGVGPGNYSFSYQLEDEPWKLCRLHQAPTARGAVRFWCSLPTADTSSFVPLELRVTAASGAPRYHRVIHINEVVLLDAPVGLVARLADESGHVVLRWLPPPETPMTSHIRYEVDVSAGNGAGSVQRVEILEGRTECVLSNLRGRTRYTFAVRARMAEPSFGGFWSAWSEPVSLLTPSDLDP
The description is as above.

Assay [5] has as its target T5, Recombinant Human DLL4 (R&D Systems Cat#1506-D4/CF) (human, UniProt Q9NR61 27-524).
T5 construct: Bought recombinant protein; also called delta-like protein 4
The assay is described as above.

Assay [6] deals with T6, rHuman Notch-1/Fc Chimera, CF (R&D Systems Cat#3647-TK) (human, UniProt P46531 19-526).
T6 construct: Bought Fc chimera; Fc part of the bought chimera not given
Described as above.

Assay [7] concerns the target T7, rHuman ErbB2/Fc Chimera, CF (R&D Systems Cat#1129-ER) (human, UniProt P04626 23-652).
T7 construct: Bought Fc chimera; also called human epidermal growth factor 2 receptor; HER2/neu; Fc part of the bought chimera not given
The description is as above.

The target in assay [8] is T8, rHuman P-Cadherin/Fc Chimera, CF (R&D Systems Cat#861-PC) (human, UniProt P22223 108-654).
T8 construct: Bought Fc chimera; Fc part of the bought chimera not given
Described as above.

For assay [9], the target named is T9, rHuman IGF-1 sR, CF (R&D Systems Cat#391-GR) (human, UniProt P08069 31-932).
T9 construct: Bought soluble receptor; also called insulin-like growth factor-1 soluble receptor; IGF-R1
The assay is described as above.

For assay [10], the target named is T1, rHuman HGF R/c-MET/Fc Chimera, CF (R&D …). Nature of the assay: ECL (MSD Multi-Spot) binding, antigen spotted on plate; Fab 1000 nM.
Assay [11] concerns the target T2, rHuman CD44/Fc Chimera, CF (R&D Systems …). Described as above.
In assay [12] the target is T3, rHuman EGF R/Fc Chimera, CF (R&D …). The description is as above.
For assay [13], the target named is T4, rHuman Erythropoietin R/Fc Chimera, CF …. The description is as above.
The target of assay [14] is T5, Recombinant Human DLL4 (R&D Systems …). Described as above.
The target in assay [15] is T6, rHuman Notch-1/Fc Chimera, CF (R&D …). Described as above.
Assay [16] has as its target T7, rHuman ErbB2/Fc Chimera, CF (R&D …). Described as above.
Assay [17] deals with T8, rHuman P-Cadherin/Fc Chimera, CF (R&D …). The description is as above.
The target in assay [18] is T9, rHuman IGF-1 sR, CF (R&D Systems …). The description is as above.
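Also: blank spot per well as comparator with Hit at signal to blank ratio of 4 or more.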

B1: Fab VH1-46_IGHD6-6*01_IGHJ1*01_S102A_S103P_S104F & L6_IGKJ1*01 (Fab, V domains shown)
VH: QVQLVQSGAEVKKPGASVKVSCKASGYTFTSYYMHWVRQAPGQGLEWMGIINPSGGSTSYAQKFQGRVTMTRDTSTSTVYMELSSLRSEDTAVYYCAREEYAPFSAEYFQHWGQGTLVTVSS
VL: not shown
notes: Fab made in E. coli; The heavy chain also carries the CH1 with Flag and His tags of Plasmid A, and the light chain the kappa constant region of Plasmid C
Turning to B1, the ECL signal in [1] was 691; in assay [2] it was 887; in assay [3], 809; in [4], 1110; in assay [5], 345000; in assay [6], 1140. In addition, the ECL signal stood at 842 in assay [7]; 894 in [8]; 720 in assay [9]; 1580 in assay [10]; 1310 in [11]; 2430 in [12]. The ECL signal in [13] was 1660; in assay [14], 73300; in assay [15], 1620; in [16], 1290; in assay [17], 2500; in assay [18], 1180.
